Publication doi:10.1101/2022.02.17.480855

Molecular target: FtsZ from Synechococcus 7942 (Synechococcus 7942)
Experiment: MST

Substance: Microcystin-LR (peptide)
- Kd: 1120 nM
